Patent US7304127
Where “and” joins values, the source holds several entries; their conditions need not be identical. Identical values can stand only once.

Target: HIV-1LAI envelope gp120 labeled with radioactive iodine (HIV-1 LAI), P03377
Test: 125I-gp120, peptide array

| Binder | counts minus background (counts per 20 min) |
| --- | --- |
| LTVPFWAHYAAAQWDFGN (modifications not checked) [CCR5 81-98] | 306 |
| FSGIFFIILLTIDRYLAV (modifications not checked) [CCR5 113-130] | 83 |
| IFLVMAVFLLTQMPFNLM (modifications not checked) [STRL33 233-250] | 386 and 772 |
| FLVNLPLADLVFVCTLPF (modifications not checked) [STRL33 69-86] | 70.5 and 51.5 |
| DLVFVCTLPFWAYAGIHE (modifications not checked) [STRL33 77-94] | 1120 and 1060 |
| AGGFQKHRSLKIIFLVMA (modifications not checked) [STRL33 221-238] | 340 and 260 |
| HEWVFGQVMCKSLLGIYT (modifications not checked) [STRL33 93-110] | 3390 and 3470 |
| FIGFFSGIFFIILLTIDR (modifications not checked) [CCR5 109-126] | 76 |
| FNLDKLICGYHDEAISTV (modifications not checked) [STRL33 173-190] | 1070 and 1080 |
| LTMIVCYSVIIKTLLHAG (modifications not checked) [STRL33 205-222] | 2790 and 2650 |
| EAISTVVLATQMTLGFFL (modifications not checked) [STRL33 185-202] | 3970 and 3750 |
| QAKRMTWGKVTSLLIWVI (modifications not checked) [STRL33 141-158] | -71.5 and -31.5 |
| PFWAYAGIHEWVFGQVMC (modifications not checked) [STRL33 85-102] | 7260 and 7540 |
| VIIKTLLHAGGFQKHRSL (modifications not checked) [STRL33 213-230] | 962 and 682 |
| YAGIHEWVFGQVMCKSLL (modifications not checked) [STRL33 89-106] | 5910 and 6250 |
| QWDFGNTMCQLLTGLYFI (modifications not checked) [CCR5 93-110] | 1020 |
| FGQVMCKSLLGIYTINFY (modifications not checked) [STRL33 97-114] | 1260 and 1350 |
| CQLLTGLYFIGFFSGIFF (modifications not checked) [CCR5 101-118] | 489 |
| LPLADLVFVCTLPFWAYA (modifications not checked) [STRL33 73-90] | 558 and 960 |
| LMKFIRSTHWEYYAMTSF (modifications not checked) [STRL33 249-266] | 934 and 950 |
| VISLLVSLPQIIYGNVFN (modifications not checked) [STRL33 157-174] | -60.5 and -128 |
| GYHDEAISTVVLATQMTL (modifications not checked) [STRL33 181-198] | 754 and 1180 |
| KVTSLLIWVISLLVSLPQ (modifications not checked) [STRL33 149-166] | -39.5 and -118 |
| LLTQMPFNLMKFIRSTHW (modifications not checked) [STRL33 241-258] | 2510 and 3150 |

| Binder | counts minus background (counts per 20 min) |
| --- | --- |
| PQIIYGNVFNLDKLICGY (modifications not checked) [STRL33 165-182] | -18.5 and -37.5 |
| YAAAQWDFGNTMCQLLTG (modifications not checked) [CCR5 89-106] | 494 |
| FWAHYAAAQWDFGNTMCQ (modifications not checked) [CCR5 85-102] | 212 |
| GNTMCQLLTGLYFIGFFS (modifications not checked) [CCR5 97-114] | 941 |
| LLIWVISLLVSLPQIIYG (modifications not checked) [STRL33 153-170] | 42.5 and 75.5 |
| VSSPIYDINYYTSEPCQK (modifications not checked) [CCR5 5-22] | 383 |
| MPFNLMKFIRSTHWEYYA (modifications not checked) [STRL33 245-262] | 2170 and 2180 |
| KLICGYHDEAISTVVLAT (modifications not checked) [STRL33 177-194] | 1360 and 1600 |
| LTDVFLVNLPLADLVFVC (modifications not checked) [STRL33 65-82] | 234 and 336 |
| VCYSVIIKTLLHAGGFQK (modifications not checked) [STRL33 209-226] | 1330 and 1140 |
| FLPLLTMIVCYSVIIKTL (modifications not checked) [STRL33 201-218] | 1270 and 1200 |
| MLILTCITVDRFIVVVKA (modifications not checked) [STRL33 117-134] | 298 and 228 |
| YGNVFNLDKLICGYHDEA (modifications not checked) [STRL33 169-186] | -41.5 and -20.5 |
| MCKSLLGIYTINFYTSML (modifications not checked) [STRL33 101-118] | 1510 and 1280 |
| TVVLATQMTLGFFLPLLT (modifications not checked) [STRL33 189-206] | 2330 and 2390 |
| VDRFIVVVKATKAYNQQA (modifications not checked) [STRL33 125-142] | 104 and 53.5 |
| ATQMTLGFFLPLLTMIVC (modifications not checked) [STRL33 193-210] | 2370 and 2440 |
| VCTLPFWAYAGIHEWVFG (modifications not checked) [STRL33 81-98] | 1820 and 1750 |
| TLLHAGGFQKHRSLKIIF (modifications not checked) [STRL33 217-234] | 1040 and 1000 |
| LFFLLTVPFWAHYAAAQW (modifications not checked) [CCR5 77-94] | 173 |
| QKHRSLKIIFLVMAVFLL (modifications not checked) [STRL33 225-242] | 810 and 814 |
| SLKIIFLVMAVFLLTQMP (modifications not checked) [STRL33 229-246] | 612 and 854 |
| MAVFLLTQMPFNLMKFIR (modifications not checked) [STRL33 237-254] | 2260 and 2840 |
